Assays:
ATG16L2 = target: T1, ATG16L2 (UniProt Q8NAA4)
T1 sequence: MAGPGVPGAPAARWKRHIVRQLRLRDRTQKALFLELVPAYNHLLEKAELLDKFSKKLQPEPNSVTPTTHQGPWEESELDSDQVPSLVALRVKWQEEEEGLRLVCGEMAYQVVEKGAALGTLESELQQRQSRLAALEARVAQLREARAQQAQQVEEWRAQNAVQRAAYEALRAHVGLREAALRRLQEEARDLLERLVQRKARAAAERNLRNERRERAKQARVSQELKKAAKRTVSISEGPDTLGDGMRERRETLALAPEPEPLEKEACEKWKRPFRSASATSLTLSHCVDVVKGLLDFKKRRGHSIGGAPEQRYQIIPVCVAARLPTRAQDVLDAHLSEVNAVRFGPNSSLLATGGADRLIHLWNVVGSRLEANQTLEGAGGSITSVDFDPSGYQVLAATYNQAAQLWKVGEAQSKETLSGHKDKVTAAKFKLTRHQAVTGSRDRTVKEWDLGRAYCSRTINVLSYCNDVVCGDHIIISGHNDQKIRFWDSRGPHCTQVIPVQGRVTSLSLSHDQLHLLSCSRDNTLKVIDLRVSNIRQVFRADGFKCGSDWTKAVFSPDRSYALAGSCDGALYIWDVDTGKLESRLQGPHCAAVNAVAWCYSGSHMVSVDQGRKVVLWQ

nek9_human NEK9 = target: T2, nek9_human NEK9 (UniProt Q8TD19)
T2 sequence: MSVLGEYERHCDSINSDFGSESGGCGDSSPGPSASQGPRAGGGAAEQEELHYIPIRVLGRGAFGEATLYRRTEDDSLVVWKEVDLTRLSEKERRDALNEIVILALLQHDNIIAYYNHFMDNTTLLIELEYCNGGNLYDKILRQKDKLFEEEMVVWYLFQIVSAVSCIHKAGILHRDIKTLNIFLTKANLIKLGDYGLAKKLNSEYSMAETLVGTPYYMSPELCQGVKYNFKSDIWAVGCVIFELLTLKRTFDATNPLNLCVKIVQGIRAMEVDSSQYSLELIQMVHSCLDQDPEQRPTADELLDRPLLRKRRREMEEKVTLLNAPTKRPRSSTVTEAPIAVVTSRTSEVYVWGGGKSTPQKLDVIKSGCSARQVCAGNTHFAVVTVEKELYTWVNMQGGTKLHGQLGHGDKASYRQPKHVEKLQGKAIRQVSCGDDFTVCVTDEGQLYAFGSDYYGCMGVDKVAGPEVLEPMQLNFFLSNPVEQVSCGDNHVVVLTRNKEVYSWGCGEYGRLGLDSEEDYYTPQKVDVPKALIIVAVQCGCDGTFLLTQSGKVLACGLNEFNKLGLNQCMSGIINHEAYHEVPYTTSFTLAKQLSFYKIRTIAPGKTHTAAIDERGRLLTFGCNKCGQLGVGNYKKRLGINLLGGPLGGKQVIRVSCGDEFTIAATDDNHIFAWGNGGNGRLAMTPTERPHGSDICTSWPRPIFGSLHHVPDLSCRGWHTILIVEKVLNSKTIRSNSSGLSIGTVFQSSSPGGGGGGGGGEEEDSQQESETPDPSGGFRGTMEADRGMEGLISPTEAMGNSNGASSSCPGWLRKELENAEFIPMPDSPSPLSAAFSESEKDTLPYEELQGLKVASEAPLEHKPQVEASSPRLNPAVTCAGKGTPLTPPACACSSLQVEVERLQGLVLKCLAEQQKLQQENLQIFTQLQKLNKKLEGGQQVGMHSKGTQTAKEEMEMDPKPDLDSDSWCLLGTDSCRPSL

daaf4_human DNAAF4 = target: T3, daaf4_human DNAAF4 (UniProt Q8WXU2)
T3 sequence: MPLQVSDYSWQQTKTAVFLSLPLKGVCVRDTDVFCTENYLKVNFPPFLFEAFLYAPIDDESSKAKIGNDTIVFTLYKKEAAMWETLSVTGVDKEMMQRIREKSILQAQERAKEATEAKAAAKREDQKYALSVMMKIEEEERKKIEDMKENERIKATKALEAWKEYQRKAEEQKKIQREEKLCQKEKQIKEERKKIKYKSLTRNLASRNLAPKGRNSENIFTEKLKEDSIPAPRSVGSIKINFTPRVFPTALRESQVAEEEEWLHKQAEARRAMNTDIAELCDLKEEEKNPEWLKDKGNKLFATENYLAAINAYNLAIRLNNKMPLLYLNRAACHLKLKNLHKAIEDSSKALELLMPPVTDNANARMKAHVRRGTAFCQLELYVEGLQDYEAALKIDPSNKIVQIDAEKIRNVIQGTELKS

fan_human NSMAF = fan_human NSMAF (UniProt Q92636)
rasf1_human RASSF1 = target: T4, rasf1_human RASSF1 (UniProt Q9NS23)
T4 sequence: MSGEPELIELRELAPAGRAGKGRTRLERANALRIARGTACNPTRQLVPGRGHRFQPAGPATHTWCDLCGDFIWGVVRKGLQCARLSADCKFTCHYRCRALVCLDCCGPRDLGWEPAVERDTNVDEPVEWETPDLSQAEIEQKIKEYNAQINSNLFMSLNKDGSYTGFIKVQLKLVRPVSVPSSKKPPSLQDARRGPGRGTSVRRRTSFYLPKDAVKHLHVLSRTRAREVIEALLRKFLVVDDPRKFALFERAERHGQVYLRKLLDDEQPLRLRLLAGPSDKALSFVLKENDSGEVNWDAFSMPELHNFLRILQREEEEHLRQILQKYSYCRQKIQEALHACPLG

stk4_human STK4 = target: T5, stk4_human STK4 (UniProt Q13043)
T5 sequence: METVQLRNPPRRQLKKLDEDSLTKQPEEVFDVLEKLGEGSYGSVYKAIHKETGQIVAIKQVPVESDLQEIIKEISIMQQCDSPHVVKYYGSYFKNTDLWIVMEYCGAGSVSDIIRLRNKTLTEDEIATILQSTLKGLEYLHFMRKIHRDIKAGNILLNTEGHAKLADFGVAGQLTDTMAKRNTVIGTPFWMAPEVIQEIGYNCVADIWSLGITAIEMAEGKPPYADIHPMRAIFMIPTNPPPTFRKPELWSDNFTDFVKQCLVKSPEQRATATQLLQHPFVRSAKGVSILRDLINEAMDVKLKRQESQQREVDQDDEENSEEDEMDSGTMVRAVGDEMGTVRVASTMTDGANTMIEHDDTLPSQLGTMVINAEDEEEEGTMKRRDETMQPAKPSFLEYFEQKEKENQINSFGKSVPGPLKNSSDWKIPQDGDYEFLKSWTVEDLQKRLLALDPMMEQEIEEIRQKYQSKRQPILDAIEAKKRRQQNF

Chain of fan_human NSMAF (Q92636 whole entry): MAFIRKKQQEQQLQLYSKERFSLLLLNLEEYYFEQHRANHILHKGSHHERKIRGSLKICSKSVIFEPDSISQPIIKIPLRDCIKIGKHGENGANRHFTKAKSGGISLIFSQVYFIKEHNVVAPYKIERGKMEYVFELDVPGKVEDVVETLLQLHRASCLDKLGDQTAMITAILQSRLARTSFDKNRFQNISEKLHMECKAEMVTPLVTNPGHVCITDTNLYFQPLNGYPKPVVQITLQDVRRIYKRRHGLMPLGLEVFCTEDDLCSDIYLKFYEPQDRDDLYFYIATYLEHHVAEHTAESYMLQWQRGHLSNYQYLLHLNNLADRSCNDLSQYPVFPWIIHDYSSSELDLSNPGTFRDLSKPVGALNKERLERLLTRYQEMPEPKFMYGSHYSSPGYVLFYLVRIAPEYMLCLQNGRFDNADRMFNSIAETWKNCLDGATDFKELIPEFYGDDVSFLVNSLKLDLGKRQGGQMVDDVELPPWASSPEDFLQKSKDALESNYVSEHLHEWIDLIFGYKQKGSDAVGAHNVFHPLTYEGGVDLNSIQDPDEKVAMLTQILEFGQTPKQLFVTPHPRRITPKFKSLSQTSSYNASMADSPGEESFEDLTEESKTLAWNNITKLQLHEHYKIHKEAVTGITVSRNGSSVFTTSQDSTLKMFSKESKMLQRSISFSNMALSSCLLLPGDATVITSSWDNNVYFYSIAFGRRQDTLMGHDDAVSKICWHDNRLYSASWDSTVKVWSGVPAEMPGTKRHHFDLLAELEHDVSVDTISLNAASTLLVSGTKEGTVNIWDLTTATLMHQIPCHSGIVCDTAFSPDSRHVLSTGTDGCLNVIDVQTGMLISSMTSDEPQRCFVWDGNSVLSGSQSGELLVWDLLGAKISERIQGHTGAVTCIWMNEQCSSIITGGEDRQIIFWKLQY

Substance	effect of a mutation on the interaction (ATG16L2)	effect of a mutation on the interaction (nek9_human NEK9)	effect of a mutation on the interaction (daaf4_human DNAAF4)	effect of a mutation on the interaction (fan_human NSMAF)	effect of a mutation on the interaction (rasf1_human RASSF1)	effect of a mutation on the interaction (stk4_human STK4)
Microtubule-associated protein 1 light chain 3 beta (Homo sapiens) (from UniProt Q9GZQ8) F52A;L53A	increasing interaction	decreasing interaction				
Microtubule-associated protein 1 light chain 3 beta (Homo sapiens) (from UniProt Q9GZQ8) R69A			decreasing interaction	disrupting interaction	decreasing interaction	disrupting interaction

Reference: IntAct's records for PubMed 20562859
